According to patent US20180346555A1 (Regeneron, published 2018):

B1: H4H16946P (antibody, human IgG4, V domains shown)
VH: EVQLVESGGGLVQPGGSLRLSCVASGFTFSNYDMNWVRQAPGEGLEWISYISYSDHNIYYIDSVKGRFTISRDNAKNSLYLQMNSLRAEDTAIYYCAREALASSSFDYWGQGTLVTVSS
VL: EIVMTQSPATLSVSPGERVTLSCRASQSVSGNLAWYQQKPGQAPRLLIYSASTGATGVPARFSGSGSGTEFTLTISSLQSEDFALYYCQQYNKWPRTIGQGTKVEIK
notes: Fully human antibody with human IgG4 Fc (H4H prefix)
B2: H4H17001P (antibody, human IgG4, V domains shown)
VH: QVQLVESGGGLVKPGGSLRLSCAASGFTFSDYYMNWIRQAPGKGLEWISLISSSGSAIYYSDSVKGRFTISRDNARKSLYLQVNSLRAEDTAVYYCARDRGEWALGAYYYGLDVWGQGTTVTVSS
VL: DIVMTQSPLSLPVTPGEPASISCRSSQSLLHSDGYNYLDWYLQKSGQSPQLLIYLGSNRASGVPDRFSGSGSGTDFTLKISRMEAEDVGVYYCMQALQTPYTFGQGTKLEIK
B3: H4H16991P (antibody, human IgG4, V domains shown)
VH: QVQLVQSGAEVRKPGASVKVSCKASGYTFTGYYLHWVRQAPGQGLEWMGLINPNTGGTNFAQKFQGRVTMTRDSSISAAYMELSRLRSDDTAVYYCARQHWNRYFDNWGQGTLVTVSS
VL: DIQMTQSPSTLSASVGDRVTITCRASQSVGNWLAWYQQKPGKAPKLLIQEASSIESGVPSRFSGSGSGTEFTLIVSSLQPDDFATYYCQQYNSYSWTFGHGTKVEIK
B4: H4H16950P (antibody, human IgG4, V domains shown)
VH: QVQLVQSGAEVKKPGASVKVSCKTSGYTFTNYGITWVRQAPGQGLEWMGWISAYNGNTNYAQNVQGRVTMTTDTSTSTAYMEVRSLRSDDTAVYYCARRSSMLHFQHWGQGTLVTVSS
VL: DIVMTQSPDSLAVSLGERATINCKSSQHVLYDSSNENYLAWFQQKPGQPPKLLIYWASTRESGVPDRFSGSGSGTDFTLTISSLQAEDVAVYYCQQYSSAPYTFGQGTKLEIK
notes: as for B1
B5: H4H16943P (antibody, human IgG4, V domains shown)
VH: EVQLVESGGGLVQPGGSLRLSCTASGFMSSMYWMSWVRQAPGKGLEWVSNIKQDGTEKNYVESVKGRFTISRDNAKNSLYLQINSLRGEDTAVYYCARDLYSSSSGYYYYGLDVWGQGTTVTVSS
VL: DIVMTQSPLSLPVTPGEPASISCRSSQSLLHSNKYNYLDWYLQKPGQSPQLLIYLSSNRASGVPDRFSGSGSGTEFTLKISRVEAEDVGIYYCMQALHTPLTFGGGTKVEIK
notes: as for B1
B6: H4H17045P2 (antibody, human IgG4, V domains shown)
VH: EVQLVESGGGLVQPGVSLRLSCVASGFTFSNYDITWIRQIPGKGLEWVSRISGSGGSTYFADSVKGRFIISRDNSKNTVYMQMNSLRAEDSAVYYCARRDSVLFSMNSWLDPWGQGTLVTVSS
VL: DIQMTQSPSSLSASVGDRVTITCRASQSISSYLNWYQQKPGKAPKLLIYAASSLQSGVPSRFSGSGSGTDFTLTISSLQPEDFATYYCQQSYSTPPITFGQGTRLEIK
B7: H4H17028P (antibody, human IgG4, V domains shown)
VH: QVQLVESGGGVVQPGRSLRLSCAASGFTFSRYAIHWVRQAPGKGLEWVAVISYDGDDKYYGDSVKGRFTISRDNSKTMVYLHMNSLRTEDTAVYYCAKDGYSLYGKDYFDYWGQGTLVTVSS
VL: EIVLTQSPGTLPLSPGERATLSCRASQSITNSYLAWYQQKPDQAPRLLIYGASSRATGIPDRFSGSESGTDFTLTISRLEPEDFAVYYCQQYVRSPWTFGQGTKVEIK
B8: H4H17033P (antibody, human IgG4, V domains shown)
VH: QVQLVQSGAEVKKPGASVKVSCKASGYTFAAHYMHWVRQAPGQGLEWMGWINTYTGGTNYGQKFQGRVTMTRDTSITTAYMELSRLRSDDTAVYYCARDRRNWNFVFEYWGQGTLVTVSS
VL: DIQMTQSPSSLSASVGDRVTISCRASQNIKNYLNWYQQKPGKAPKLLIYEASNLQSGAPSRFSGSGSGTDFTLTISSLEPEDFATYYCQQSFSIPWTFGQGTKVEIK
B9: H4H16979P (antibody, human IgG4, V domains shown)
VH: QVQLVQSGAEVKKPGASVKVSCKASGYTFIAYYLHWVRQAPGQGLEWMGLLNPYTGGSYYTQKFQGRVTMTRDTSIDTAYMELNSLRSDDTAIYYCARDKRSYYIPYAFEIWGQGTMVTVSS
VL: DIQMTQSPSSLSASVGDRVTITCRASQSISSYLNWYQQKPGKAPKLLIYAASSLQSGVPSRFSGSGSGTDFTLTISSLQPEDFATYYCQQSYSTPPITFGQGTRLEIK
B10: H4H16987P (antibody, human IgG4 S228P, kappa, V domains shown)
VH: EVQLVESGGGLVQPGGSLRLSCAASGFTVSSNSMSWVRQAPGEGLEWVSVIFSGGITYYSDSVKGRFTISRHNSKNTLYLQMNSLRTEDTAVYYCARHSNWNFDAFDIWGQGTMVTVSS
VL: DIQMTQSPSSLSASVGDRVTITCRASQSFDTYLNWYQQKPGKAPNLLIYATSSLQSGVPSRFSGSGSGTDFTLTISSLQPEDFGTYYCQQSYSIPYTFGQGTKLEIKR
notes: Human IgG4; also called MAB4
B11: H4H17015P (antibody, human IgG4, V domains shown)
VH: QVQLQESGPGLVKPSQTLSLTCTVSGGSISSADHYWSWIRQQPGKGLEWIGYISYRGTTYYNPTLESRVSISVDTFKNQFSLMLHSVTVADTAVYYCAKVLQGLVRFRDYGFDVWGQGTTVTVSS
VL: DIQLTQSPPFLSASVGDRVTITCWASQDISSYLAWYQQNPGKSPKLLIYDAFTLHTGVPSRFSGSGSGTEFTLTISSLQPEDFATFYCQHLYSFPFTFGPGTKVDIK
B12: H4H17067P2 (antibody, human IgG4, V domains shown)
VH: EVQLVQSGAEVKKPGESLKISCSGSGYRFTNYWIAWVRQMPGKGLEWMGLIHPDDSDIRYSPSFQGQVTFSVDKSINTAYLQWSSLKASDTAMYYCTRQDGILWSHNAWFDPWGQGTLVTVSS
VL: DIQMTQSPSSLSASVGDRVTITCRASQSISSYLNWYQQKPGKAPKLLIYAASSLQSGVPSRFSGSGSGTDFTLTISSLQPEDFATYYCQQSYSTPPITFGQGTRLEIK
B13: H4H16960P (antibody, human IgG4, V domains shown)
VH: QLQLQESGPGLVRPSETLSLTCTVSGGSISSSNYWWGWIRQPPGKGLEWIGSIYYSGITYYNPSLKSRVTISADTSKDQFSLKLRSVTAADTAVYYCAKLEWLRLDFWGQGTTVTVSS
VL: DIQMTQSPSSVSASVGDRVTITCRASQGISSWLVWYQQKPGKVPKLLIYAASSLQSGVPLRFSGSGSGTDFTLTISSLQPEDFATYYCQQAKSFPLTFGQGTRLEIK
notes: as for B1
B14: H4H17027P (antibody, human IgG4, V domains shown)
VH: EVQLVESGGGLVQPGGSLRLSCAASGFTFRNYAMHWVRQAPGEGLEWVAAIYRNSDSIDYADSVKGRFTISRDNAKNSLYLQMNSLKTEDTALYYCAKDEGFLEYFDSWGQGTLVTVSS
VL: EIVLTQSPGTLSLSPGERASLSCRASQSVSSSFLAWYQQKPGQAPRLLIYGVSSRFIGIPDRFSGGGSGTDFTLTITRLEPEDFAVYYCQQYGRSPWTFGQGTKVEIK
B15: H4H16967P (antibody, human IgG4, V domains shown)
VH: QVQLVESGGGVVQPGRSLRLSCAASGFTFSSYGMHWFRQAPGKGLEWVGVIWSDGSDKKYADSVKGRFTISRDNSKNTLYLLMNSLRDDDTAVYHCAREGGFLYSSSSHFDYWGQGTLVTVSS
VL: AIQMTQSPSSLSASVGDRVTITCRTSQGIRNDLGWYQQKPGKAPKLLIFAASSLQSGVPSRFSGSGSGTDFTLTISSLQPEDFAIYYCLQDYKYPFTFGGGTKVEIK
notes: as for B1

What was measured:
[1] = molecular target: T1, Hazel (Cor A 1, MyBiosource, Cat# MBS5304600) (Hazel, UniProt Q08407 2-160, limits assumed); test: SPR Biacore 4000, mAb captured by anti-human Fc, 25 C;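 also: allergen analyte binding to captured, purified anti-Bet v 1 monoclonal antibodies, SPR in HEPES-buffered saline running buffer with EDTA and Tween-20 at pH 7.4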
T1 construct: Bought reagent
T1 sequence (looked up): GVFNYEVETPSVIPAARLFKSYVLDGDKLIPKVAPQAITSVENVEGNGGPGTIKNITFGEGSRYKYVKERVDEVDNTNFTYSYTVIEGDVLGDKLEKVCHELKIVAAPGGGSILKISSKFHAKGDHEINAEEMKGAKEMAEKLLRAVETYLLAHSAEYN

natural Bet v 1 [2] = molecular target: T2, natural Bet v 1 (Betula verrucosa (Betula pendula), UniProt P15494 2-160); test: SPR Biacore 4000, mAb captured on anti-human Fc, 25C;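 also: purified anti-Bet v 1 mAbs probed with natural Bet v 1 in HBS-ET buffer (HEPES, NaCl, EDTA, Tween-20) at pH 7.4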
T2 construct: Bought natural protein; also called nBet v 1
T2 chain: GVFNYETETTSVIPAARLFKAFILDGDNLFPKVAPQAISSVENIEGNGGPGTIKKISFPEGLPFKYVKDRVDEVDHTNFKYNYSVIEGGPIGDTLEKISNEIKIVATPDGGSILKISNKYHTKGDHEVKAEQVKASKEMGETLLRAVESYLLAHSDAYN

natural Bet v 1 [3] = molecular target: T2, natural Bet v 1; test: SPR Biacore 4000, mAb captured on anti-human Fc, 37C;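 also: kinetic rate constants from SPR sensorgrams fitted to a 1:1 model with mass transport limitation, HBS-ET buffer pH 7.4, KD and t½ derived from the rate constants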

Binder | 100 nM Analyte Bound (RU) [1] | 100 nM natural Bet v 1 Bound (RU) (natural Bet v 1 [2]) | Kd (natural Bet v 1 [2]) | koff (natural Bet v 1 [2]) | kon (natural Bet v 1 [2]) | t½ (natural Bet v 1 [2]) | 100 nM natural Bet v 1 Bound (RU) (natural Bet v 1 [3]) | Kd (natural Bet v 1 [3]) | koff (natural Bet v 1 [3]) | kon (natural Bet v 1 [3]) | t½ (natural Bet v 1 [3]) | binding result [1]
B1 | -1 RU |  |  |  |  |  |  |  |  |  |  | 
B2 |  | 71 RU | 1 nM | 0.000329 s⁻¹ | 329000 M⁻¹ s⁻¹ | 35 min | 87 RU | 2.52 nM | 0.00122 s⁻¹ | 485000 M⁻¹ s⁻¹ | 9.5 min | 
B3 |  | 57 RU | 1.06 nM | 0.000312 s⁻¹ | 295000 M⁻¹ s⁻¹ | 37 min | 66 RU | 2.16 nM | 0.00108 s⁻¹ | 500000 M⁻¹ s⁻¹ | 11 min | 
B4 | 0 RU |  |  |  |  |  |  |  |  |  |  | no binding (tested: 100 nM)
B5 | 0 RU |  |  |  |  |  |  |  |  |  |  | no binding (tested: 100 nM)
B6 |  | 69 RU | 1.22 nM | 0.000149 s⁻¹ | 122000 M⁻¹ s⁻¹ | 78 min | 90 RU | 1.86 nM | 0.000441 s⁻¹ | 237000 M⁻¹ s⁻¹ | 26 min | 
B7 |  | 63 RU | 3.79 nM | 0.00107 s⁻¹ | 281000 M⁻¹ s⁻¹ | 11 min | 71 RU | 7.77 nM | 0.0029 s⁻¹ | 373000 M⁻¹ s⁻¹ | 3.9 min | 
B8 |  | 61 RU | 1.19 nM | 0.000469 s⁻¹ | 394000 M⁻¹ s⁻¹ | 25 min | 74 RU | 1.9 nM | 0.00119 s⁻¹ | 627000 M⁻¹ s⁻¹ | 10 min | 
B9 |  | 41 RU | 1.21 nM | 0.000278 s⁻¹ | 230000 M⁻¹ s⁻¹ | 42 min | 52 RU | 1.8 nM | 0.000616 s⁻¹ | 342000 M⁻¹ s⁻¹ | 19 min | 
B10 |  | 61 RU | 2.77 nM | 0.00114 s⁻¹ | 410000 M⁻¹ s⁻¹ | 10 min | 74 RU | 9.16 nM | 0.00477 s⁻¹ | 520000 M⁻¹ s⁻¹ | 2.4 min | 
B11 |  | 68 RU | 1.34 nM | 0.000246 s⁻¹ | 184000 M⁻¹ s⁻¹ | 47 min | 84 RU | 2.7 nM | 0.000792 s⁻¹ | 293000 M⁻¹ s⁻¹ | 15 min | 
B12 |  | 58 RU | 3.56 nM | 0.000402 s⁻¹ | 113000 M⁻¹ s⁻¹ | 29 min | 80 RU | 5.48 nM | 0.00147 s⁻¹ | 268000 M⁻¹ s⁻¹ | 7.9 min | 
B13 | 0 RU |  |  |  |  |  |  |  |  |  |  | no binding (tested: 100 nM)
B14 |  | 48 RU | 4.32 nM | 0.00027 s⁻¹ | 62400 M⁻¹ s⁻¹ | 43 min | 67 RU | 9.48 nM | 0.00093 s⁻¹ | 98100 M⁻¹ s⁻¹ | 12 min | 
B15 | 0 RU |  |  |  |  |  |  |  |  |  |  | no binding (tested: 100 nM)
